Columns and labels:
[1] = target: Full-length LapA (FL-LapA; residues 1 to 378), minus N-terminal signal sequence (Legionella pneumophila strain 130b); experiment: crystal structure
[2] = target: Full-length NttD (FL-NttD; residues 1 to 373), minus N-terminal signal sequence (Legionella pneumophila strain 130b); experiment: SEC

Substance | stoichiometry N [1] | stoichiometry N [2]
Full-length LapA (FL-LapA; residues 1 to 378), minus N-terminal signal sequence (enzyme) | 2 | 
Full-length NttD (FL-NttD; residues 1 to 373), minus N-terminal signal sequence (natural protein) |  | 2
